Measured values reported in paper PMC11393876 (Cancers, 2024).

Tests used:
Details in all cases: both partners purified
[1] = molecular target: T1, Biotin-hPD-1-mIgG Fc (human, UniProt Q15116, biotin); test: ELISA; competitive ELISA; human PD-L1 coated; Biotin-hPD-1-mIgG Fc at 0.025 μg/mL as binder; serial dilutions of P1801 from 0.5 μg/mL as competitor; 25 °C, 2 h
T1 construct: PD-1, human; also called hPD-1-mFc; source: PharmaEssentia, purified fusion protein

[2] = molecular target: T2, human PD-1 (Homo sapiens, UniProt Q15116); test: SPR; P1801 (2 µg/mL) captured on the surface; human PD-1 proteins injected; 25 °C; HBS-EP (10 mM HEPES, 150 mM NaCl, 3 mM EDTA, 0.05% Tween 20, pH 7.4)
T2 construct: programmed cell death 1 (PD-1), human; also called PD-1/His antigen; human PD-1 proteins; source: bought: Sino Biological (HPLC-10377-H08H) for the ELISA
T2 sequence (Q15116 25-170): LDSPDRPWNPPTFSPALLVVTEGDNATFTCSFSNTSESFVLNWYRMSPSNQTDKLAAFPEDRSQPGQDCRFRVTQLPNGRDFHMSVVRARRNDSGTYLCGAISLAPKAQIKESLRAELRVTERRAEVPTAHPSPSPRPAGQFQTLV

[3] = molecular target: T1, Biotin-hPD-1-mIgG Fc; test: ELISA; competitive ELISA; human PD-L2 coated; Biotin-hPD-1-mIgG Fc at 0.025 μg/mL as binder; serial dilutions of P1801 from 0.5 μg/mL as competitor; 25 °C, 2 h
[4] = molecular target: T3, cynomolgus PD-1 (Macaca fascicularis (cynomolgus), UniProt B0LAJ3); test: ELISA; direct binding ELISA; antigens coated overnight, blocked with 1% BSA 2 h; P1801 incubated at 25 °C for 1 h; detected with peroxidase goat anti-hIgG Fc
T3 construct: PD-1, cynomolgus monkey, GenBank NP_001271065.1; source: bought: Sino Biological (90311-C08H)

[5] = molecular target: T4, human CD28 (Homo sapiens, UniProt P10747); test: as above
T4 construct: CD28, human; source: bought: Sino Biological (11524-HCCH)
T4 sequence (P10747 19-152): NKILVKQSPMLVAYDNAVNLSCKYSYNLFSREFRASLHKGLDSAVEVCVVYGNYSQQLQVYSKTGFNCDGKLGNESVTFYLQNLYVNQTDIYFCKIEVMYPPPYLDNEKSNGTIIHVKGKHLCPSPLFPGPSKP

[6] = molecular target: T5, human PD-L2 (human, UniProt Q9BQ51); test: as above
T5 construct: PD-L2, human; source: bought: Sino Biological (10292-H08H)
T5 sequence (Q9BQ51 20-220): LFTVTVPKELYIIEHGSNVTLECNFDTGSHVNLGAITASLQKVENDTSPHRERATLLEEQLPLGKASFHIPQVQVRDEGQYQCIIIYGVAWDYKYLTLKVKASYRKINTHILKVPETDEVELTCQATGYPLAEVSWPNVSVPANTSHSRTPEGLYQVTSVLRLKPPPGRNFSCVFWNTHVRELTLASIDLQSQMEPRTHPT

[7] = molecular target: T2, human PD-1; test: as above
[8] = molecular target: T6, human PD-L1 (human, UniProt Q9NZQ7); test: as above
T6 construct: programmed death-ligand 1 (PD-L1), human; also called programmed death-ligand 1; source: bought: Sino Biological (10084-H08H)
T6 sequence (Q9NZQ7 19-238): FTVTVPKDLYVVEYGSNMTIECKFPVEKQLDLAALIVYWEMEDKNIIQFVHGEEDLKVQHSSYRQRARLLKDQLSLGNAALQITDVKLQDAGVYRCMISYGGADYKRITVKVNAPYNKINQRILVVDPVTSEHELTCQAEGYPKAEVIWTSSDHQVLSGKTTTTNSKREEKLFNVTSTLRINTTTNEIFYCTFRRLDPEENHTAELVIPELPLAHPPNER

[9] = molecular target: T7, mouse PD-1 (Mus musculus, UniProt Q02242); test: as above
T7 construct: PD-1, mouse; source: bought: Sino Biological (50124-M08H)
T7 sequence (Q02242 25-169): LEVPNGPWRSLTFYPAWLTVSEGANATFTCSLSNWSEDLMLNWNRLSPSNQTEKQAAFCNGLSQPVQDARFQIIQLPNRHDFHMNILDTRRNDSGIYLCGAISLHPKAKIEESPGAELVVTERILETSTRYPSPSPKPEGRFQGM

[10] = molecular target: T8, human CTLA-4 (Homo sapiens, UniProt P16410); test: as above
T8 construct: CTLA-4, human; source: bought: Sino Biological (11159-H08H)
T8 sequence (P16410 36-161): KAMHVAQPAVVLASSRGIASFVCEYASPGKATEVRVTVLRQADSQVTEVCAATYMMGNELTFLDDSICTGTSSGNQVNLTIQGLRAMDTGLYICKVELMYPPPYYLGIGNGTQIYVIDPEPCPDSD

T1 sequence (Q15116 25-170): as the sequence (Q15116 25-170) above

- IC50 [1]: 0.57 nM
- Kd [2]: 2.5 nM
- IC50 [3]: 0.9 nM
- EC50 [4]: 0.44 nM
- binding result [5]: no binding
- binding result [6]: no binding
- EC50 [7]: 0.57 nM
- binding result [8]: no binding
- binding result [9]: no binding
- binding result [10]: no binding
B1: P1801 (antibody, V domains shown)
VH: EVQLVESGGGLVQPGGSLRLSCAASGFTFSSYDMSWVRQAPGKGLEWVATITGGGSYTYYPDSVKGRFTISRDNAKNSLYLQMNSLRAEDTAVYYCASPYLNYFDYWGQGTLVTVSS
VL: EIVLTQSPATLSLSPGERATLSCRASQSISNNLHWYQQKPGQAPRLLIYYASQSISGIPARFSGSGSGTDFTLTISSLEPEDFAVYYCQQSNSWPLTFGQGTKLEIK
notes: 464 residues; mouse CDR1-3 in a human IgG4 framework with the S228P mutation; kappa light chain, 234 residues; mouse CDRs in a human framework; IgG4 kappa, S228P; humanized from murine clone PD-1RB-M59; The printed lengths (464 and 234 residues) may include signal peptides; Molecular weight 146,799 Da; also called anti-human PD-1 IgG4 humanized monoclonal antibody; source: CHO cell expression …
